Patent publication US20240148887A1 (MERSANA THERAPEUTICS, published 2024)

T1: NaPi2b-derived peptide from human ([Cyc(12,18)]Ac-QINVTVPSTANCTSPSLCWTDGIQNWTMKN-amide) (human, [Cyc(12,18)] cyclisation between residues 12 and 18; N-terminal acetyl (Ac-); C-terminal amide)
T1 peptide: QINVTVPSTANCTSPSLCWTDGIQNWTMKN

T2: NaPi2b-derived peptide from cynolmogus monkey ([Cyc(12,18)]Ac-QMNVTVPSMANCTSPSLCWTDGIQIWTMKN-amide) (cynomolgus monkey, [Cyc(12,18)] cyclisation between residues 12 and 18; N-terminal acetyl (Ac-); C-terminal amide)
T2 peptide: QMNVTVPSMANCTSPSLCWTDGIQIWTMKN

T3: NaPi2b-derived peptide from rat ([Cyc(12,18)]Ac-EENVTVPSPDNCTSPSYCWTDGIQTWTIQN-amide) (rat, [Cyc(12,18)] cyclisation between residues 12 and 18; N-terminal acetyl (Ac-); C-terminal amide)
T3 peptide: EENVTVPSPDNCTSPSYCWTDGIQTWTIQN

T4: NaPi2b-derived peptide from mouse ([Cyc(12,18)]Ac-EMNVTVPSTDNCTSPSYCWTDGIQTWTIQN-amide) (mouse, [Cyc(12,18)] cyclisation between residues 12 and 18; N-terminal acetyl (Ac-); C-terminal amide)
T4 peptide: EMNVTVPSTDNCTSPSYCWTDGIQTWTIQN

T5: Human NaPi2b-derived peptide (QINVTVPSTANCTSPSLCWTDGIQNWTMKN) (human)
T5 construct: no modification is printed there; also called NaPi2b peptide
T5 peptide: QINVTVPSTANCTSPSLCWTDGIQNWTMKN

T6: FcγRIIA (H167) (human, UniProt P12318 36-218, limits assumed)
T6 construct: H167 is printed as the allelic form
T6 sequence (looked up): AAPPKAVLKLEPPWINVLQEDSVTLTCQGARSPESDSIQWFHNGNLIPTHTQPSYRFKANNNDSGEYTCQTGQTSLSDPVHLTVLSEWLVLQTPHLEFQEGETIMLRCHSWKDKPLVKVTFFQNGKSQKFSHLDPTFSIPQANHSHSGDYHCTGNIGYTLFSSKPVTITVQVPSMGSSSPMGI

T7: Biotinylated NaPi2b-derived peptide (QINVTVPSTANCTSPSLCWTDGIQNWTMKN-biotin; Genscript) (C-terminal biotin)
T7 construct: also called NaPi2b-derived peptide antigen; immobilized NaPi2b-derived peptide
T7 peptide: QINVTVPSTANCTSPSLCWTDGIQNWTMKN

T8: NaPi2b on the cell surface of OVCAR3 human ovarian carcinoma cells (human, UniProt O95436 1-690)
T8 construct: also called sodium-dependent phosphate transport protein 2B; SLC34A2
T8 sequence: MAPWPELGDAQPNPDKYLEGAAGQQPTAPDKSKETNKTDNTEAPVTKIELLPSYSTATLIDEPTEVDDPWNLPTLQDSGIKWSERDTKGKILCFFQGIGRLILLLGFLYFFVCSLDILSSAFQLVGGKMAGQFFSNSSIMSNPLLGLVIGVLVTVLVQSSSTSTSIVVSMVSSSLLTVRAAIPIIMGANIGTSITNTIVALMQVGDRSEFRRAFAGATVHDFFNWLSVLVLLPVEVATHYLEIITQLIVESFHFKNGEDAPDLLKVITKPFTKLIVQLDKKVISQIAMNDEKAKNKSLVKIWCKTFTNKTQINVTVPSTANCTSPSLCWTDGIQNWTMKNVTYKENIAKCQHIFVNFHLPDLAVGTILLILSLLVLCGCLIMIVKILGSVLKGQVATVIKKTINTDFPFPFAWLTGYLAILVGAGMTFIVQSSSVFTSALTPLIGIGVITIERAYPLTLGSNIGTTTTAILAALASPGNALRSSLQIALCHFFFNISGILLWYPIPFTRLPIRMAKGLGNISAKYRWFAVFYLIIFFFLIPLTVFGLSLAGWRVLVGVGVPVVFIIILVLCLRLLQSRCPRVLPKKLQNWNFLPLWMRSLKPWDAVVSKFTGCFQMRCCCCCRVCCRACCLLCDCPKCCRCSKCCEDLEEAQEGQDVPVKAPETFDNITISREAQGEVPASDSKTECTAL

B1: XMT-1535 (anti-NaPi2b antibody) (antibody, human IgG1, kappa)
heavy: not shown
light: DIQMTQSPSSLSASVGDRVTITCSASQDIGNFLNWYQQKPGKTVKVLIYYTSSLYSGVPSRFSGSGSGTDYTLTISSLQPEDFATYYCQQYSKLPLTFGQGTKLELKRRTVAAPSVFIFPPSDEQLKSGTASVVCLLNNFYPREAKVQWKVDNALQSGNSQESVTEQDSKDSTYSLSSTLTLSKADYEKHKVYACEVTHQGLSSPVTKSFNRGEC
notes: Unconjugated IgG1 antibody
B2: Conjugate 7 (XMT-1535 drug conjugate of Scaffold 6) (antibody, human IgG1, kappa)
heavy: not shown
light: DIQMTQSPSSLSASVGDRVTITCSASQDIGNFLNWYQQKPGKTVKVLIYYTSSLYSGVPSRFSGSGSGTDYTLTISSLQPEDFATYYCQQYSKLPLTFGQGTKLELKRRTVAAPSVFIFPPSDEQLKSGTASVVCLLNNFYPREAKVQWKVDNALQSGNSQESVTEQDSKDSTYSLSSTLTLSKADYEKHKVYACEVTHQGLSSPVTKSFNRGEC
modifications: Scaffold 6 linker-drug (AF-HPA payload) attached by click chemistry to the azido-modified GlcNAc(Fuc)-GalNAc glycan on the asparagine at N297 (N300 of SEQ ID NO: 1 according to claim 40)
notes: The glycan was trimmed with Endo SH and extended with an azido sugar; the text prints 6.6
B3: Conjugate 11 (XMT-1535 stochastic conjugate) (antibody, human IgG1, kappa)
heavy: not shown
light: DIQMTQSPSSLSASVGDRVTITCSASQDIGNFLNWYQQKPGKTVKVLIYYTSSLYSGVPSRFSGSGSGTDYTLTISSLQPEDFATYYCQQYSKLPLTFGQGTKLELKRRTVAAPSVFIFPPSDEQLKSGTASVVCLLNNFYPREAKVQWKVDNALQSGNSQESVTEQDSKDSTYSLSSTLTLSKADYEKHKVYACEVTHQGLSSPVTKSFNRGEC
modifications: maleimido scaffold of Scaffold 6 (AF-HPA payload) on cysteines freed by TCEP reduction; stochastic, positions not given
notes: DAR 6.5

Columns and labels:
[1] = molecular target: T1, NaPi2b-derived peptide from human …; experiment: ELISA, cyclic peptide coated on plate; mean of 2 experiments
[2] = molecular target: T2, NaPi2b-derived peptide from cynolmogus …; experiment: as above
[3] = molecular target: T3, NaPi2b-derived peptide from rat …; experiment: as above
[4] = molecular target: T4, NaPi2b-derived peptide from mouse …; experiment: as above
[5] = molecular target: T5, Human NaPi2b-derived peptide …; experiment: ELISA, peptide coated on plate, anti-human IgG-HRP, four-parameter fit; mean of 2 experiments
Protocol: (§3) Human NaPi2b-derived peptide ([sequence]) was coated onto the surface of each well of a 96-well plate by incubation with the peptide (1 μg/mL in PBS), overnight at +4° C. The wells were then blocked by incubation with BSA (3% in PBS, containing 0.1% Tween 20 (PBST)) for 1 hour at room temperature. […] The unbound test article was removed by washing with PBST (3×). A secondary anti-human IgG conjugated to HRP (0.16 μg/mL in PBST) was incubated in each well for 1 hour. The unbound secondary antibody was removed by washing with PBST (3×). The HRP substrate, TMB, was added to each well and incubated until a blue color was visible. The reaction was quenched by the addition of sulfuric acid (0.2 N, 100 μL). […] The values were plotted using GraphPad Prism software. EC₅₀ values were determined by four-parameter curve fitting.

FcγRI [6] = molecular target: T9, FcγRI (human, UniProt P12314 16-288, limits assumed); experiment: BLI (Octet QKe), test article on anti-human Fab-CH1 (FAB2G) sensors, receptor in solution, 25 C, 1:1 global fit; mean of 3 experiments
T9 construct: also called Fc receptor FcγRI
T9 sequence (P12314 16-288 limits assumed): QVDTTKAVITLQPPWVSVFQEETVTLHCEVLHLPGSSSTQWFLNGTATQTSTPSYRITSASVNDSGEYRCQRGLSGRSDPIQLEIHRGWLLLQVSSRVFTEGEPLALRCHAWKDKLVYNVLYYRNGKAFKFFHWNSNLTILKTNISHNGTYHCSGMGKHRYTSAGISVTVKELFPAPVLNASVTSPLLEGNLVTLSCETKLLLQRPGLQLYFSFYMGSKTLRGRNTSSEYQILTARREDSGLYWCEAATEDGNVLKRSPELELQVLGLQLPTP
Protocol: (§1) Dissociation was performed for 15 minutes. Binding constants were calculated with the global fit averages of the traces using a 1:1 model. […] Kinetic parameters were calculated using Octet software (ForteBio).

FcγRIIA (H167) [7] = molecular target: T6, FcγRIIA (H167); experiment: as above
Protocol: as §1

[8] = molecular target: T10, human FcRn protein (Immunitrack) (human, UniProt P55899 24-297; P61769 21-119, limits assumed); experiment: BLI (Octet QKe), test article on anti-human Fab-CH1 (FAB2G) sensors, FcRn in solution, pH 6.0, 1:1 global fit; mean of 2 experiments
T10 construct: also called FcRn receptor
T10 sequence (P55899 24-297 limits assumed, chain 1 of 2): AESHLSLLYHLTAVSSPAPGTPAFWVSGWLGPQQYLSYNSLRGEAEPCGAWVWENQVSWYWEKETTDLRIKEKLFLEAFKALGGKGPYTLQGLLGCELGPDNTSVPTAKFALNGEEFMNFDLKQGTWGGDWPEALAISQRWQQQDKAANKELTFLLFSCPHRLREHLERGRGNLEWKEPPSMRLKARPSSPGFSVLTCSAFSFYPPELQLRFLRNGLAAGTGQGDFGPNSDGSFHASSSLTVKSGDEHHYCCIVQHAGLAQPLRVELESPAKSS
T10 sequence (P61769 21-119 limits assumed, chain 2 of 2): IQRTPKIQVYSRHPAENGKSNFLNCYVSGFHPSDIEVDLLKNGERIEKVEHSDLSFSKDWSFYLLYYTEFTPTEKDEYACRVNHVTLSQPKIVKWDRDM
Protocol: as §1
(§2) After association, sensors were washed for 5 minutes in FcRn binding buffer (Boston Bioproducts; diluted to 100 mM NaH₂PO₄, 0.05% Tween 20, pH 6.0). Association and dissociation steps were performed in FcRn binding buffer. Association measurements to FcRn protein (Immunitrack) was measured at 7 concentrations (from 1 μM to […], 2-fold serial dilutions) for 5 minutes. Dissociation was performed for 15 minutes. Binding constants were calculated with the global fit averages of the traces using a 1:1 model.

[9] = molecular target: T7, Biotinylated NaPi2b-derived peptide …; experiment: BLI (Octet), biotinylated peptide on streptavidin sensors, 25 C; mean of 4 experiments
Protocol: Biotinylated NaPi2b-derived peptide ([…]-biotin; Genscript) was immobilized to streptavidin octet sensors in kinetics buffer (10×). Sensors were then blocked in kinetics buffer (10×) with biocytin (50 μg/mL).

[10] = molecular target: T8, NaPi2b on the cell surface of OVCAR3 …; experiment: flow cytometry on OVCAR3 cells, Alexa Fluor 647 anti-human IgG, median fluorescence, four-parameter fit; mean of 2 experiments
Protocol: The detached cells were triturated in media, and plated in 96 well U-bottom plates, at a density of 50,000 cells in medium (75 μL). […] The cells were washed with ice cold PBS (3×), and resuspended in ice cold PBS with 1% paraformaldehyde (100 L). The fluorescence per cell was determined by analyzing 5,000 cells for each treatment on the flow cytometer. The median fluorescence value for each treatment was plotted, and EC₅₀ values were calculated with Graphpad Prism software by four-parameter curve fitting.

FcγRIIIA (V176) = FcγRIIIA (V176) (human, UniProt P08637 17-208, limits assumed); experiment: BLI (Octet QKe), test article on anti-human Fab-CH1 (FAB2G) sensors, receptor in solution, 25 C, 1:1 global fit; mean of 2 experiments
Chain of FcγRIIIA (V176) (P08637 17-208 F176V limits assumed): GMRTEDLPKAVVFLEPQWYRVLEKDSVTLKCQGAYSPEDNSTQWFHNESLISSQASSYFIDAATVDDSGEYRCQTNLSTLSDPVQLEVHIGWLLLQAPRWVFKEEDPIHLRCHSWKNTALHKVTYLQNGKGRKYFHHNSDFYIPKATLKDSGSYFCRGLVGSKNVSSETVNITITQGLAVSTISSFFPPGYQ
Protocol: as §1

[11] = molecular target: T5, Human NaPi2b-derived peptide …; experiment: ELISA, peptide coated on plate, anti-human IgG-HRP, four-parameter fit; mean of 3 experiments
Protocol: as §3

[12] = molecular target: T10, human FcRn protein (Immunitrack); experiment: BLI (Octet QKe), test article on anti-human Fab-CH1 (FAB2G) sensors, FcRn in solution, pH 6.0, 1:1 global fit; mean of 5 experiments
Protocol: as §1, §2

FcγRI [13] = molecular target: T9, FcγRI; experiment: BLI (Octet QKe), test article on anti-human Fab-CH1 (FAB2G) sensors, receptor in solution, 25 C, 1:1 global fit; mean of 2 experiments
Protocol: as §1

FcγRIIA (H167) [14] = molecular target: T6, FcγRIIA (H167); experiment: as above
Protocol: as §1

| Binder | EC50 [1] [nM] | EC50 [2] [nM] | EC50 [3] [nM] | EC50 [4] [nM] | Kd (FcγRI [6]) [nM] | koff (FcγRI [6]) [s⁻¹] | kon (FcγRI [6]) [M⁻¹ s⁻¹] | Kd [9] [nM] | koff [9] [s⁻¹] | kon [9] [M⁻¹ s⁻¹] | EC50 [10] [nM] | Kd (FcγRIIIA (V176)) [nM] | koff (FcγRIIIA (V176)) [s⁻¹] | kon (FcγRIIIA (V176)) [M⁻¹ s⁻¹] | EC50 [11] [nM] | Kd [12] [nM] | koff [12] [s⁻¹] | kon [12] [M⁻¹ s⁻¹] | further results |
| --- | --- | --- | --- | --- | --- | --- | --- | --- | --- | --- | --- | --- | --- | --- | --- | --- | --- | --- | --- |
| B1 | 4.43 | 4.04 | 4.71 | 2.77 | 0.15 | 0.000192 | 1.28e+06 | 0.0729 | 1.27e-05 | 170000 | 11.2 | 641 | 0.146 | 216000 |  |  |  |  | EC50 [5]: 1.77 nM; Kd (FcγRIIA (H167) [7]): 1740 nM; koff (FcγRIIA (H167) [7]): 0.308 s⁻¹; kon (FcγRIIA (H167) [7]): 175000 M⁻¹ s⁻¹; Kd [8]: 2.76 nM; koff [8]: 0.000448 s⁻¹; kon [8]: 160000 M⁻¹ s⁻¹ |
| B2 | 3.7 | 3.83 | 2.48 | 1.79 | 3.05 | 0.00373 | 1.13e+06 | 0.0828 | 1.81e-05 | 200000 | 8.15 |  |  |  | 1.44 | 5.88 | 0.000481 | 86100 |  |
| B3 | 5 | 4.19 | 3.72 | 2.26 |  |  |  | 0.0813 | 1.37e-05 | 165000 | 6.56 | 270 | 0.0671 | 270000 | 1.05 | 4.96 | 0.00055 | 126000 | Kd (FcγRI [13]): 0.166 nM; koff (FcγRI [13]): 0.000209 s⁻¹; kon (FcγRI [13]): 1.26e+06 M⁻¹ s⁻¹; Kd (FcγRIIA (H167) [14]): 1250 nM; koff (FcγRIIA (H167) [14]): 0.345 s⁻¹; kon (FcγRIIA (H167) [14]): 273000 M⁻¹ s⁻¹ |
